Reference: US20210277110A1 (Janssen / Centocor, published 2021)
Read-outs that look alike come from different tables or passages of the source.

How the values were obtained:
[1] = molecular target: T1, Extracellular domain of cyno PD1 (cPD1-ECD) (Macaca fascicularis (cynomolgus)); test: SPR ProteOn, captured mAb, cynoPD1-ECD analyte
T1 construct: Expressed with a hexahistidine tag or as Fc fusion; also called cynoPD1-ECD; cynoPD-1-ECD
T1 chain: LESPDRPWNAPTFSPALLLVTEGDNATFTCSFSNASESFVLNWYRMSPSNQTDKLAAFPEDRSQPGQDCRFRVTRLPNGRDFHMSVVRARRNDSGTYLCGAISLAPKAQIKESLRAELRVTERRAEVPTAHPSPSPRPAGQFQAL

[2] = molecular target: T2, Full length human PD1 (huPD1) on cells (human, UniProt Q15116 25-288); test: flow cytometry, PHA-stimulated Jurkat cells
T2 construct: on T cells of human donors in the MLR and CMV assays (functional); also called PD-1 on Jurkat cells
T2 sequence (Q15116 25-288 limits assumed): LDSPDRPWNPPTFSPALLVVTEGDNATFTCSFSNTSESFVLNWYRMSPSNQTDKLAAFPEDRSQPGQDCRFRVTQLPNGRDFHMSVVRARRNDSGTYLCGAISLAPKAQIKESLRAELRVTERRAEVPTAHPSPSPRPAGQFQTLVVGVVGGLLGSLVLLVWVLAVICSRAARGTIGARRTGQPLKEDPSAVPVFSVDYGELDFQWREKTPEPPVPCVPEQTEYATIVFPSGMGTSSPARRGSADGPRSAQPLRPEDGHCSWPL
Protocol: (§1) Jurkat cells were stimulated overnight with 20 ng/ml of PHA, harvested, washed, and checked for viability. The cells were then incubated at 6-10° C. for 45-60 minutes with various concentrations of test antibodies, washed and incubated at 6-10° C. for 45-60 minutes with FITC-labeled goat anti-human IgG. The cells were washed and fixed with BD Cytofix, refrigerated overnight and analyzed on a MACSQuant flow cytometer. The percentage of PD-1 positive cells at each antibody concentration was plotted vs log of the antibody concentration and EC₅₀ values were generated in Prism.

[3] = molecular target: T1, Extracellular domain of cyno PD1 …; test: SPR ProteOn, cynoPD1-ECD; RANGE high replicate; RANGE high replicate
Protocol: (§2) Affinity measurements using Surface Plasmon Resonance (SPR) were performed using a ProteOn XPR36 system. A biosensor surface was prepared by coupling a mixture of anti-IgG Fc modified alginate polymer layer surface of a GLC chip using the manufacturer instructions for amine-coupling chemistry. […] The collected data were processed and fitted to a Langmuir 1:1 binding model. The result for each mAb was reported in the format of kₒₙ (On-rate), koff (Off-rate) and KD (equilibrium dissociation constant).
(§3) STDEV were calculated for 3 or more replicates generated for human and cyno proteins. If less than 3 replicates were calculated, RANGE is indicated. RANGE is defined as the low and high values for the replicates tested. For samples without RANGE or STDEV, only one experiment was performed

[4] = molecular target: T3, Extracellular domain of human PD1 (huPD1-ECD) (human, UniProt Q15116 25-169, biotinylated in the ligand inhibition assay (sites not given)); test: SPR ProteOn, huPD1-ECD; RANGE high replicate
T3 construct: Expressed with a hexahistidine tag or as Fc fusion; also called biotinylated PD-1
T3 sequence (Q15116 25-169 limits assumed): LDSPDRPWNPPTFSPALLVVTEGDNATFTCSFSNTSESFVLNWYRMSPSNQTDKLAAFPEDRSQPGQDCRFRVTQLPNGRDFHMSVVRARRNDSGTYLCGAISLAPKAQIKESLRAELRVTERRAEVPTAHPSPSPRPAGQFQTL

[5] = molecular target: T3, Extracellular domain of human PD1 …; test: SPR ProteOn, captured mAb; antigen species not given
[6] = molecular target: T3, Extracellular domain of human PD1 …; test: SPR ProteOn, captured mAb, huPD1-ECD analyte
Protocol: as §2, §3

[7] = molecular target: T2, Full length human PD1 (huPD1) on cells; test: flow cytometry, PHA-stimulated Jurkat cells; remark: listed apart in the source
Protocol: as §1

[8] = molecular target: T1, Extracellular domain of cyno PD1 …; test: SPR ProteOn, cynoPD1-ECD; RANGE high replicate
Protocol: as §2, §3

[9] = molecular target: T3, Extracellular domain of human PD1 …; test: MSD ligand inhibition, competitor coated huPDL2-ECD
Protocol: (§4) The ligand inhibition assay design was MSD (Mescoscale Discovery) based. A MSD plate was directly coated with ligand (cynoPDL1-ECD, huPDL1-ECD or huPDL2-ECD) and incubated overnight at 4° C. The following day, the coating solution was removed and the plate was blocked. […] Depending on the panel of antibodies to be tested, the antibodies were tested as titrations or at a fixed concentration.

[10] = molecular target: T3, Extracellular domain of human PD1 …; test: MSD ligand inhibition, competitor coated cynoPDL1-ECD
[11] = molecular target: T3, Extracellular domain of human PD1 …; test: SPR ProteOn, captured mAb, huPD1-ECD analyte; remark: listed apart in the source
Protocol: as §2
(§5) STDEV were calculated for 3 or more replicates generated for human and cyno proteins. If less than 3 replicates were calculated, RANGE was indicated. RANGE is defined as the low and high values for the replicates tested. For samples in the Table 10 or Table 11 without value indicated in RANGE or STDEV, only one experiment was performed.

[12] = molecular target: T3, Extracellular domain of human PD1 …; test: MSD ligand inhibition, competitor coated huPDL1-ECD
Protocol: as §4

[13] = molecular target: T3, Extracellular domain of human PD1 …; test: SPR ProteOn, huPD1-ECD; RANGE high replicate; RANGE high replicate
Protocol: as §2, §3

[14] = molecular target: T3, Extracellular domain of human PD1 …; test: MSD ligand inhibition, competitor coated cynoPDL1-ECD; remark: listed apart in the source
Protocol: as §4

[15] = molecular target: T3, Extracellular domain of human PD1 …; test: SPR ProteOn, huPD1-ECD; RANGE low replicate
Protocol: as §2, §3

[16] = molecular target: T1, Extracellular domain of cyno PD1 …; test: SPR ProteOn, cynoPD1-ECD; RANGE low replicate
Protocol: as §2, §3

[17] = molecular target: T1, Extracellular domain of cyno PD1 …; test: SPR ProteOn, captured mAb, cynoPD1-ECD analyte
Protocol: as §2, §3

[18] = molecular target: T1, Extracellular domain of cyno PD1 …; test: SPR ProteOn, cynoPD1-ECD; RANGE low replicate; RANGE low replicate
Protocol: as §2, §3

[19] = molecular target: T2, Full length human PD1 (huPD1) on cells; test: cell-based or functional assay
[20] = molecular target: T4, cyno TIM-3 on transfected cells (cyno, UniProt A0A2K5U3G7 22-294); test: binding to cells transfected with cyno TIM-3
T4 construct: whole, on cells; also called Cyno cells
T4 sequence: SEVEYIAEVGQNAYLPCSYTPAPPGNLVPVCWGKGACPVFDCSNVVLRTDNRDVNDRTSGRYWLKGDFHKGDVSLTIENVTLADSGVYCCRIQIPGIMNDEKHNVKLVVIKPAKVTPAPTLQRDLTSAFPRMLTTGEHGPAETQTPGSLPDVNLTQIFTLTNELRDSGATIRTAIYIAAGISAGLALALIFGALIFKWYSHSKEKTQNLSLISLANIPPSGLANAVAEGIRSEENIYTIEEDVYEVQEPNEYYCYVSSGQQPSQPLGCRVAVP

[21] = molecular target: T5, Full length human TIM-3 on transfected cells (human, UniProt Q8TDQ0 22-301); test: binding to cells transfected with human TIM-3
T5 construct: also called Human cells

[22] = molecular target: T6, recombinant human TIM-3-Fc fusion protein (huTIM-3-Fc) (human, UniProt Q8TDQ0 22-200); test: competition ELISA on coated Fc-TIM-3, competitor galectin-9
T6 construct: range 22-200; Bought from R&D Systems (NS0-derived); Deglycosylated for HDX-MS; also called recombinant human Fc-TIM-3 chimera; TIM-3 IgG1 Fc Chimera; not shown: IgG1 Fc of the bought chimera

[23] = molecular target: T1, Extracellular domain of cyno PD1 …; test: SPR ProteOn, cynoPD1-ECD; RANGE high replicate; RANGE high replicate
Protocol: as §2, §5

[24] = molecular target: T3, Extracellular domain of human PD1 …; test: SPR ProteOn, captured mAb, huPD1-ECD analyte; approximation (chi2 > 20%)
Protocol: as §2
STDEV were calculated for 3 or more replicates generated for human and cyno proteins. If less than 3 replicates were calculated, RANGE was indicated. RANGE is defined as the low and high values for the replicates tested.

[25] = molecular target: T1, Extracellular domain of cyno PD1 …; test: SPR ProteOn, cynoPD1-ECD; RANGE high replicate
Protocol: as §2, §5

[26] = molecular target: T1, Extracellular domain of cyno PD1 …; test: SPR ProteOn, cynoPD1-ECD; RANGE low replicate
Protocol: as §2, §5

B1: PD1B71 (antibody, V domains shown)
VH: QVQLVQSGAEVKKPGSSVKVSCKASGGTFSSYAISWVRQAPGQGLEWMGGIIPIFGTANYAQKFQGRVTITADESTSTAYMELSSLRSEDTAVYYCARGTLDRTGHLDYWGQGTLVTVSS
VL: EIVLTQSPATLSLSPGERATLSCRASQSVSSYLAWYQQKPGQAPRLLIYDASNRATGIPARFSGSGSGTDFTLTISSLEPEDFAVYYCQQRSNWPLTFGQGTKVEIK
notes: Tested as IgG2sigma/kappa; also called PD1H108/PH9L3
Kd [1]: 66.8 nM | koff [1]: 0.0203 s⁻¹ | kon [1]: 304000 M⁻¹ s⁻¹ | EC50 [2]: 0.13 to 0.47 µg/mL | koff [3]: 0.0207 s⁻¹ | kon [3]: 417000 M⁻¹ s⁻¹ | Kd [4]: 24.7 nM | kon [4]: 976000 M⁻¹ s⁻¹ | Kd [5]: 120 nM | koff [5]: 0.0277 s⁻¹ | kon [5]: 231000 M⁻¹ s⁻¹ | Kd [6]: 23.5 nM | koff [6]: 0.0225 s⁻¹ | kon [6]: 955000 M⁻¹ s⁻¹ | EC50 [7]: 0.13 µg/mL | Kd [8]: 61.4 nM | IC50 [9]: 0.035 µg/mL | percentage ligand not blocked at 1 µg/ml [10]: 6% | percentage ligand not blocked at 10 µg/ml [10]: 9% | Kd [11]: 49.9 nM | koff [11]: 0.0273 s⁻¹ | kon [11]: 548000 M⁻¹ s⁻¹ | IC50 [12]: 0.024 µg/mL | koff [13]: 0.023 s⁻¹ | IC50 [14]: 0.014 to 0.015 µg/mL | Kd [15]: 22.4 nM | koff [15]: 0.0219 s⁻¹ | kon [15]: 933000 M⁻¹ s⁻¹ | Kd [16]: 44.4 nM | koff [16]: 0.0185 s⁻¹ | kon [16]: 337000 M⁻¹ s⁻¹ | Kd [17]: 52 nM | koff [17]: 0.0196 s⁻¹ | kon [17]: 377000 M⁻¹ s⁻¹

B2: PD1B195 (antibody, V domains shown)
VH: QVQLVQSGAEVKKPGSSVKVSCKASGGTFSSYAISWVRQAPGQGLEWMGGIIPIFDTANYAQKFQGRVTITADESTSTAYMELSSLRSEDTAVYYCARPGLAAAYDTGSLDYWGQGTLVTVSS
VL: EIVLTQSPATLSLSPGERATLSCRASQSVDSYLAWYQQKPGQAPRLLIYDASNRATGIPARFSGSGSGTDFTLTISSLEPEDFAVYYCQQREYWPLTFGQGTKVEIK
notes: also called PD1H170/PD1L67
koff [3]: 0.000419 s⁻¹ | Kd [6]: 1.23 nM | koff [6]: 0.00152 s⁻¹ | kon [6]: 1.23e+06 M⁻¹ s⁻¹ | Kd [8]: 0.97 nM | kon [8]: 434000 M⁻¹ s⁻¹ | koff [18]: 0.000396 s⁻¹ | CMV EC50, nM (IFN-γ induction) [19]: 1.64 nM | Kd [16]: 0.91 nM | kon [16]: 430000 M⁻¹ s⁻¹ | Kd [17]: 0.94 nM | koff [17]: 0.000408 s⁻¹ | kon [17]: 432000 M⁻¹ s⁻¹

B3: TM3B189 (antibody, V domains shown)
VH: EVQLQQSGPELLKPGASVKMSCKASGYTFTSYVMYWVKQKPGQGLEWIGYINPYNDGTKYNEKFKGKATLTSDKSSSTAYMELSRLTSEDSAVYYCTRDDYDVAPFAYWGQGTLVTVSA
VL: DIVLTQSPASLAVSLGQRATISCRASESLDSYGNSYIHWYQQKPGQPPKLLIYLASNLESGVPARFSGSGSKTDFTLTIDPVEADDPATYYCQQNNEDPFTFGSGTKLEIK
notes: Mouse-derived variable domains; also called TM3H141/TM3L61
EC50 [20]: 0.19 µg/mL | EC50 [21]: 0.74 µg/mL | Galectin 9 Inhibition, % inhibition (maximal) [22]: 76.4%

B4: TM3B190 (antibody, V domains shown)
VH: DVQLQESGPGLVKPSQSLSLTCTVTGYSITSDYAWNWIRQFPGNKLEWMGYINYSGRTSYNPSLKSRISITRDTSKNQFFLQLNSVTTEDTATYYCTSGGNFDYWGQGTTLTVSS
VL: DIVMTQSPSSMSASLGDRITITCQATQDIVKNLNWYQQKPGKPPSFLIHYVTELAEGVPSRFSGSGSGSDYSLTISNLESEDFADYYCLQFYEFPLTFGAGTKLELK
notes: Mouse-derived variable domains; also called TM3H96/TM3L62
EC50 [20]: 0.08 µg/mL | EC50 [21]: 0.35 µg/mL | Galectin 9 Inhibition, % inhibition (maximal) [22]: 60.7%

B5: PD1B149 (antibody, human IgG2, kappa, V domains shown)
VH: QVQLVQSGAEVKKPGSSVKVSCKASGGTFSSYAISWVRQAPGQGLEWMGGIIPIFGTANYAQKFQGRVTITADESTSTAYMELSSLRSEDTAVYYCARPGLAAAYDTGNLDYWGQGTLVTVSS
VL: EIVLTQSPATLSLSPGERATLSCRASQSVRNYLAWYQQKPGQAPRLLIHDASNRATGIPARFSGSGSGTDFTLTISSLEPEDFAVYYCQQRNYWPLTFGQGTKVEIKR
notes: IgG2sigma/kappa; VH 41, VL 50; also called PD1H24/PD1L128
Kd [1]: 11.2 nM | koff [1]: 0.00357 s⁻¹ | kon [1]: 320000 M⁻¹ s⁻¹ | EC50 [7]: 0.08 µg/mL | koff [23]: 0.00365 s⁻¹ | kon [23]: 336000 M⁻¹ s⁻¹ | percentage ligand not blocked at 1 µg/ml [10]: 7% | percentage ligand not blocked at 10 µg/ml [10]: 7% | Kd [24]: ~12 nM | Kd [25]: 11.4 nM | koff [11]: 0.0062 s⁻¹ | kon [11]: 532000 M⁻¹ s⁻¹ | Kd [26]: 10.9 nM | koff [26]: 0.00348 s⁻¹ | kon [26]: 304000 M⁻¹ s⁻¹

B6: TM3B105 (antibody, human IgG2, kappa, V domains shown)
VH: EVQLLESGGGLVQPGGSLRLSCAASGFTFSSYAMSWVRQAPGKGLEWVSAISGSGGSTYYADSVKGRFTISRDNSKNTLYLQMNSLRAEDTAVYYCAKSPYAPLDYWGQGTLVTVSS
VL: EIVLTQSPATLSLSPGERATLSCRASQSVNDYLAWYQQKPGQAPRLLIYDASNRATGIPARFSGSGSGTDFTLTISSLEPEDFAVYYCQQGGHAPITFGQGTKVEIKR
notes: IgG2sigma/kappa; VH 146, VL 156; also called TM3H24/TM3L33
EC50 [20]: 0.03 µg/mL | EC50 [21]: 0.46 µg/mL | Galectin 9 Inhibition, % inhibition (maximal) [22]: 69.8%
